Article PMC4840434, “The interactome of Streptococcus pneumoniae and its bacteriophages show highly specific patterns of interactions among bacteria and their phages” (Scientific Reports, 2016)

Legend:
Assay in all cases: pull-down; LuMPIS: N-terminally MBP-tagged bait pulled down on amylose beads, N-terminally eGFP-luciferase-tagged prey detected by luciferase activity; both expressed in HEK cells, raw protein extracts; quadruplicates; LIR against MBP without ORF
[1] = target: Dp-1 orf31, Hypothetical protein (LuMPIS construct) (phage Dp-1 of S. pneumoniae)
[2] = target: Dp-1 orf14, dUTPase (LuMPIS construct) (phage Dp-1 of S. pneumoniae)
[3] = target: Dp-1 orf58, Holin (LuMPIS construct) (phage Dp-1 of S. pneumoniae)
[4] = target: Dp-1 orf9, No similarity (LuMPIS construct) (phage Dp-1 of S. pneumoniae)
[5] = target: Dp-1 orf34, Hypothetical protein (LuMPIS construct) (phage Dp-1 of S. pneumoniae)
[6] = target: Dp-1 orf44, Rho-like domain lipoprotein (LuMPIS construct) (phage Dp-1 of S. pneumoniae)
[7] = target: Dp-1 orf48, Hypothetical protein (LuMPIS construct) (phage Dp-1 of S. pneumoniae)
[8] = target: Dp-1 orf32, Hypothetical protein (LuMPIS construct) (phage Dp-1 of S. pneumoniae)
[9] = target: Dp-1 orf4, Queuosine biosynth. protein QueE (LuMPIS construct) (phage Dp-1 of S. pneumoniae)
[10] = target: Cp-1 orfb, Hypothetical protein (LuMPIS construct) (phage Cp-1 of S. pneumoniae)
[11] = target: Cp-1 orfc, Hypothetical protein (LuMPIS construct) (phage Cp-1 of S. pneumoniae)
[12] = target: Cp-1 orf17, Tail protein N (LuMPIS construct) (phage Cp-1 of S. pneumoniae)
[13] = target: Dp-1 orf29, Hypothetical protein (LuMPIS construct) (phage Dp-1 of S. pneumoniae)
[14] = target: Dp-1 orf18, DNA polymerase III, delta’ subunit HolB (LuMPIS construct) (phage Dp-1 of S. pneumoniae)
[15] = target: Cp-1 orf10, Connector protein (LuMPIS construct) (phage Cp-1 of S. pneumoniae)
[16] = target: Cp-1 orf6, Hypothetical protein (LuMPIS construct) (phage Cp-1 of S. pneumoniae)

Work on “SP_1153, hypothetical protein (LuMPIS construct) (from UniProt A0A0H2UQ84 1-392) (natural protein)” yielded an LIR (luminescence intensity ratio against MBP alone) [1] of 6.

In the case of “SP_2125, conserved hypothetical protein (LuMPIS construct) (from UniProt A0A0H2URY4 1-113) (natural protein)”, the LIR (luminescence intensity ratio against MBP alone) [2] is reported as 45.

With “SP_1731, conserved hypothetical protein (LuMPIS construct) (from UniProt A0A0H2UR87 1-252) (natural protein)” the LIR (luminescence intensity ratio against MBP alone) [3] was 3.

Molecule “SP_1504, TPR domain protein (LuMPIS construct) (from UniProt A0A0H2UQR2 1-403) (natural protein)” has an LIR (luminescence intensity ratio against MBP alone) [4] of 19.

Molecule “SP_2157, alcohol dehydrogenase, iron-containing (LuMPIS construct) (from UniProt A0A0H2USH2 1-383) (natural protein)” has an LIR (luminescence intensity ratio against MBP alone) [5] of 35 and an LIR (luminescence intensity ratio against MBP alone) [6] of 13.

In the case of “SP_1395, putative phosphate transport system regulatory protein PhoU (LuMPIS construct) (from UniProt A0A0H2UQU1 1-217) (natural protein)”, the LIR (luminescence intensity ratio against MBP alone) [4] is reported as 23.

Molecule “SP_1746, conserved hypothetical protein (LuMPIS construct) (from UniProt A0A0H2URF8 1-197) (natural protein)” has an LIR (luminescence intensity ratio against MBP alone) [7] of 3.

Molecule “SP_1751, putative transporter, CorA family (LuMPIS construct) (from UniProt A0A0H2UR86 1-302) (natural protein)” has an LIR (luminescence intensity ratio against MBP alone) [3] of 5.

Molecule “SP_1669, MutT/nudix family protein (LuMPIS construct) (from UniProt A0A0H2URA0 1-203) (natural protein)” has an LIR (luminescence intensity ratio against MBP alone) [8] of 10.

Work on “SP_2036, PTS system, IIA component (LuMPIS construct) (from UniProt A0A0H2URW0 1-161) (natural protein)” yielded an LIR (luminescence intensity ratio against MBP alone) [9] of 454.

In the case of “SP_1213, conserved domain protein (LuMPIS construct) (from UniProt A0A0H2UQB9 1-424) (natural protein)”, the LIR (luminescence intensity ratio against MBP alone) [10] is reported as 240.

For “SP_1536, conserved hypothetical protein (LuMPIS construct) (from UniProt A0A0H2UQS7 1-249) (natural protein)”, the LIR (luminescence intensity ratio against MBP alone) [6] was 10.

“SP_1575, conserved hypothetical protein (LuMPIS construct) (from UniProt A0A0H2UQU9 1-225) (natural protein)” was tested, and the LIR (luminescence intensity ratio against MBP alone) [6] was 14.

“SP_1725, sucrose operon repressor (LuMPIS construct) (natural protein)” gave an LIR (luminescence intensity ratio against MBP alone) [6] of 3.

Work on “SP_0446, acetolactate synthase, small subunit (LuMPIS construct) (natural protein)” yielded an LIR (luminescence intensity ratio against MBP alone) [5] of 12 and an LIR (luminescence intensity ratio against MBP alone) [6] of 6.

In the case of “SP_1915, hypothetical protein (LuMPIS construct) (from UniProt A0A0H2URK9 1-149) (natural protein)”, the LIR (luminescence intensity ratio against MBP alone) [8] is reported as 5.

“SP_2168, putative fucose operon repressor (LuMPIS construct) (from UniProt A0A0H2USI3 1-257) (natural protein)” gave an LIR (luminescence intensity ratio against MBP alone) [7] of 3, an LIR (luminescence intensity ratio against MBP alone) [4] of 15 and an LIR (luminescence intensity ratio against MBP alone) [1] of 5.

With “SP_0979, oligoendopeptidase F (LuMPIS construct) (natural protein)” the LIR (luminescence intensity ratio against MBP alone) [11] was 3 and the LIR (luminescence intensity ratio against MBP alone) [12] was 14.

“SP_2012, glyceraldehyde 3-phosphate dehydrogenase (LuMPIS construct) (natural protein)” showed an LIR (luminescence intensity ratio against MBP alone) [13] of 3.

B1: SP_0194, conserved hypothetical protein (LuMPIS construct) (natural protein)
chain: MSHDHNHDHEERELITLVDEQGNETLFEILLTIDGKEEFGKNYVLLVPVNAEEDEDGQVEIQAYSFIENEDGTEGELQPIPEDSEDEWNMIEEVFNSFMEE
With B1 the LIR (luminescence intensity ratio against MBP alone) [8] was 5.

B2: SP_1540, single-strand binding protein Ssb (LuMPIS construct) (natural protein)
chain: MINNVVLVGRMTRDAELRYTPSNVAVATFTLAVNRTFKSQNGEREADFINVVMWRQQAENLANWAKKGSLIGVTGRIQTRSYDNQQGQRVYVTEVVAENFQMLESRSVREGHTGGAYSAPTANYSAPTNSVPDFSRNENPFGATNPLDISDDDLPF
Work on B2 yielded an LIR (luminescence intensity ratio against MBP alone) [8] of 3.

B3: SP_1584, GTP-sensing transcriptional pleiotropic repressor CodY (LuMPIS construct) (natural protein)
chain: MAHLLEKTRKITSILKRSEEQLQDELPYNAITRQLADIIHCNACIINSKGRLLGYFMRYKTNTDRVEQFFQTKIFPDDYVQGANMIYETEANLPVEHDMSIFPIESRDDFPDGLTTIAPIHVSGIRLGSLIIWRNDKKFEDEDLVLVEIASTVVGIQLLNFQREEDEKNIRRRTAVTMAVNTLSYSELRAVSAILGELNGNEGKLTASVIADRIGITRSVIVNALRKLESAGIIESRSLGMKGTYLKVLISDIFEEVKKRDY
For B3, the LIR (luminescence intensity ratio against MBP alone) [14] was 6.

B4: SP_1881, glutamate racemase (LuMPIS construct) (natural protein)
chain: MDNRPIGFLDSGVGGLTVVRELMRQLPHEEIVYIGDSARAPYGPRPAEQIREYTWQLVNFLLTKDVKMIVIACNTATAVVWEEIKAQLDIPVLGVILPGASAAIKSSQGGKIGVIGTPMTVQSDIYRQKIHDLDPDLQVESLACPKFAPLVESGALSTSVTKKVVYETLRPLVGKVDSLILGCTHYPLLRPIIQNVMGPKVQLIDSGAECVRDISVLLNYFEINRGRDAGPLHHRFYTTASSQSFAQIGEEWLEKEIHVEHVEL
B4 was tested, and the LIR (luminescence intensity ratio against MBP alone) [15] was 6.

B5: SP_1713, transcriptional regulator, NrdR family (LuMPIS construct) (natural protein)
chain: MRCPKCGATKSSVIDSRQAEEGNTIRRRRECDECQHRFTTYERVEERTLVVVKKDGTREQFSRDKIFNGIIRSAQKRPVSSDEINMVVNRIEQKLRGRNENEIQSEDIGSLVMEELAELDEITYVRFASVYRSFKDVSELESLLQQITQSSKKKKER
For B5, the LIR (luminescence intensity ratio against MBP alone) [16] was 6.

B6: SP_1354, ribosomal protein L7/L12 (LuMPIS construct) (natural protein)
chain: MALNIENIIAEIKEASILELNDLVKAIEEEFGVTAAAPVAVAAADAADAGAAKDSFDVELTSAGDKKVGVIKVVREITGLGLKEAKELVDGAPALVKEGVATAEAEEIKAKLEEAGASVTLK
B6 showed an LIR (luminescence intensity ratio against MBP alone) [15] of 12.
